Reference: patent US20190233493A1 (Sanofi, published 2019)
*1 amine or outer side, *2 acyl side, *3 side chain or, on linkers, in order; H or OH if unused. Side-chain parts run from the residue outwards. [ ]: non-standard residue; d: D form. The star is where a group is joined. PEG12 = NCCOCCOCCOCCOCCOCCOCCOCCOCCOCCOCCOCCOCCC(=O)O; γGlu = O=C(O)[C@H](CCC(=O)[*:2])N[*:1]; 1Nal = N[C@@H](Cc1cccc2ccccc12)C(=O)O; Stearoyl = CCCCCCCCCCCCCCCCCC(=O)*; Palmitoyl = CCCCCCCCCCCCCCCC(=O)*; Nle = CCCC[C@H](N)C(=O)O; Aib = CC(C)(N)C(=O)O

T1: RXFP1 receptor (UniProt Q9HBX9 1-757, limits assumed)
T1 sequence (looked up): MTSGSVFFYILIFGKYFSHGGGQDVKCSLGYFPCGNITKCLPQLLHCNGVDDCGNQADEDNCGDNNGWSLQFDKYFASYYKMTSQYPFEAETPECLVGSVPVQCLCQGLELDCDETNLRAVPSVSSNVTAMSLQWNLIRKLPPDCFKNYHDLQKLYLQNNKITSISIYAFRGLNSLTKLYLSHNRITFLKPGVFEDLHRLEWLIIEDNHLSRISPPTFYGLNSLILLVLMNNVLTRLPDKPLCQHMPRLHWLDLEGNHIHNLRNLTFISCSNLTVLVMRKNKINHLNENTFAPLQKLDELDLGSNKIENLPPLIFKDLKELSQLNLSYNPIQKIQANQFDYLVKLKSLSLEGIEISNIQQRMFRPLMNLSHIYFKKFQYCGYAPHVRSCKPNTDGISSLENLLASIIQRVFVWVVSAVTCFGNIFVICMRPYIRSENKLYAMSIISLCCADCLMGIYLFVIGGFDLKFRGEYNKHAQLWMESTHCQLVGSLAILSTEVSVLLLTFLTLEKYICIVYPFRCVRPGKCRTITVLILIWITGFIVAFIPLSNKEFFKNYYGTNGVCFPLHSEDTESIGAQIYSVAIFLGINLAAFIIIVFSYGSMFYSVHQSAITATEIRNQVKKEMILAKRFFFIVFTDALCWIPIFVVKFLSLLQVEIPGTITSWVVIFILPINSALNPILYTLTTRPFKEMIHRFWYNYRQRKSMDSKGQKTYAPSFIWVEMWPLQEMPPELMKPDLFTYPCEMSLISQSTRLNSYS

B1: peptide of SEQ ID NO: 37 (peptide)
peptide: Ac-LEGREKVR[Aib]K(Ac)I[Aib][Aib]EG[Nle]ST[1Nal]S[Aib]RKK(Ac)[PEG12]K([γGlu-γGlu-γGlu-Stearoyl])-NH2
SMILES: CCCCCCCCCCCCCCCCCC(=O)N[C@@H](CCC(=O)N[C@@H](CCC(=O)N[C@@H](CCC(=O)NCCCC[C@H](NC(=O)CCOCCOCCOCCOCCOCCOCCOCCOCCOCCOCCOCCOCCNC(=O)[C@H](CCCCNC(C)=O)NC(=O)[C@H](CCCCN)NC(=O)[C@H](CCCNC(=N)N)NC(=O)C(C)(C)NC(=O)[C@H](CO)NC(=O)[C@H](Cc1cccc2ccccc12)NC(=O)[C@@H](NC(=O)[C@H](CO)NC(=O)[C@H](CCCC)NC(=O)CNC(=O)[C@H](CCC(=O)O)NC(=O)C(C)(C)NC(=O)C(C)(C)NC(=O)[C@@H](NC(=O)[C@H](CCCCNC(C)=O)NC(=O)C(C)(C)NC(=O)[C@H](CCCNC(=N)N)NC(=O)[C@@H](NC(=O)[C@H](CCCCN)NC(=O)[C@H](CCC(=O)O)NC(=O)[C@H](CCCNC(=N)N)NC(=O)CNC(=O)[C@H](CCC(=O)O)NC(=O)[C@H](CC(C)C)NC(C)=O)C(C)C)[C@@H](C)CC)[C@@H](C)O)C(N)=O)C(=O)O)C(=O)O)C(=O)O
B2: peptide of SEQ ID NO: 40 (peptide)
peptide: Ac-LEGREKVRAK(Ac)I[Aib][Aib]EG[Nle]STWXXRKK(Ac)[PEG12]K([γGlu-γGlu-γGlu-γGlu-Stearoyl])-NH2
modifications: not fully specified (some residues); printed as Ac-L-E-G-R-E-K-V-R-A-K(Ac)-I-Aib-Aib-E-G-Nle-S-T-W-Mse-Mly-R-K-K(Ac)-PEG12-K(gE-gE-gE-gE-Stea)-NH2
B3: peptide of SEQ ID NO: 36 (peptide)
peptide: Ac-LEGREKVR[Aib]K(Ac)I[Aib][Aib]EG[Nle]STWS[Aib]RKK(Ac)[PEG12]K([γGlu-γGlu-γGlu-Stearoyl])-NH2
SMILES: CCCCCCCCCCCCCCCCCC(=O)N[C@@H](CCC(=O)N[C@@H](CCC(=O)N[C@@H](CCC(=O)NCCCC[C@H](NC(=O)CCOCCOCCOCCOCCOCCOCCOCCOCCOCCOCCOCCOCCNC(=O)[C@H](CCCCNC(C)=O)NC(=O)[C@H](CCCCN)NC(=O)[C@H](CCCNC(=N)N)NC(=O)C(C)(C)NC(=O)[C@H](CO)NC(=O)[C@H](Cc1c[nH]c2ccccc12)NC(=O)[C@@H](NC(=O)[C@H](CO)NC(=O)[C@H](CCCC)NC(=O)CNC(=O)[C@H](CCC(=O)O)NC(=O)C(C)(C)NC(=O)C(C)(C)NC(=O)[C@@H](NC(=O)[C@H](CCCCNC(C)=O)NC(=O)C(C)(C)NC(=O)[C@H](CCCNC(=N)N)NC(=O)[C@@H](NC(=O)[C@H](CCCCN)NC(=O)[C@H](CCC(=O)O)NC(=O)[C@H](CCCNC(=N)N)NC(=O)CNC(=O)[C@H](CCC(=O)O)NC(=O)[C@H](CC(C)C)NC(C)=O)C(C)C)[C@@H](C)CC)[C@@H](C)O)C(N)=O)C(=O)O)C(=O)O)C(=O)O
B4: peptide of SEQ ID NO: 39 (peptide)
peptide: Ac-LEGREKVRAK(Ac)I[Aib][Aib]EG[Nle]STWXKRKK(Ac)[PEG12]K([γGlu-γGlu-γGlu-γGlu-Stearoyl])-NH2
modifications: not fully specified (some residues); printed as Ac-L-E-G-R-E-K-V-R-A-K(Ac)-I-Aib-Aib-E-G-Nle-S-T-W-Mse-K-R-K-K(Ac)-PEG12-K(gE-gE-gE-gE-Stea)-NH2
B5: peptide of SEQ ID NO: 41 (peptide)
peptide: Ac-LEGREKVRAK(Ac)I[Aib][Aib]EG[Nle]STWX[Aib]RKK(Ac)[PEG12]K([γGlu-γGlu-γGlu-Stearoyl])-NH2
modifications: not fully specified (some residues); printed as Ac-L-E-G-R-E-K-V-R-A-K(Ac)-I-Aib-Aib-E-G-Nle-S-T-W-Mse-Aib-R-K-K(Ac)-PEG12-K(gE-gE-gE-Stea)-NH2
B6: peptide of SEQ ID NO: 38 (peptide)
peptide: Ac-LEGREKVRAK(Ac)I[Aib][Aib]EG[Nle]STWS[Aib]RK[PEG12]K([γGlu-γGlu-γGlu-Palmitoyl])-NH2
SMILES: CCCCCCCCCCCCCCCC(=O)N[C@@H](CCC(=O)N[C@@H](CCC(=O)N[C@@H](CCC(=O)NCCCC[C@H](NC(=O)CCOCCOCCOCCOCCOCCOCCOCCOCCOCCOCCOCCOCCNC(=O)[C@H](CCCCN)NC(=O)[C@H](CCCNC(=N)N)NC(=O)C(C)(C)NC(=O)[C@H](CO)NC(=O)[C@H](Cc1c[nH]c2ccccc12)NC(=O)[C@@H](NC(=O)[C@H](CO)NC(=O)[C@H](CCCC)NC(=O)CNC(=O)[C@H](CCC(=O)O)NC(=O)C(C)(C)NC(=O)C(C)(C)NC(=O)[C@@H](NC(=O)[C@H](CCCCNC(C)=O)NC(=O)[C@H](C)NC(=O)[C@H](CCCNC(=N)N)NC(=O)[C@@H](NC(=O)[C@H](CCCCN)NC(=O)[C@H](CCC(=O)O)NC(=O)[C@H](CCCNC(=N)N)NC(=O)CNC(=O)[C@H](CCC(=O)O)NC(=O)[C@H](CC(C)C)NC(C)=O)C(C)C)[C@@H](C)CC)[C@@H](C)O)C(N)=O)C(=O)O)C(=O)O)C(=O)O
B7: peptide of SEQ ID NO: 4 (peptide)
peptide: Ac-ELEGREKVRAAI[Aib][Aib]EG[Nle]STWS[Aib]RKK([γGlu-γGlu-Palmitoyl])-NH2
SMILES: CCCCCCCCCCCCCCCC(=O)N[C@@H](CCC(=O)N[C@@H](CCC(=O)NCCCC[C@H](NC(=O)[C@H](CCCCN)NC(=O)[C@H](CCCNC(=N)N)NC(=O)C(C)(C)NC(=O)[C@H](CO)NC(=O)[C@H](Cc1c[nH]c2ccccc12)NC(=O)[C@@H](NC(=O)[C@H](CO)NC(=O)[C@H](CCCC)NC(=O)CNC(=O)[C@H](CCC(=O)O)NC(=O)C(C)(C)NC(=O)C(C)(C)NC(=O)[C@@H](NC(=O)[C@H](C)NC(=O)[C@H](C)NC(=O)[C@H](CCCNC(=N)N)NC(=O)[C@@H](NC(=O)[C@H](CCCCN)NC(=O)[C@H](CCC(=O)O)NC(=O)[C@H](CCCNC(=N)N)NC(=O)CNC(=O)[C@H](CCC(=O)O)NC(=O)[C@H](CC(C)C)NC(=O)[C@H](CCC(=O)O)NC(C)=O)C(C)C)[C@@H](C)CC)[C@@H](C)O)C(N)=O)C(=O)O)C(=O)O
B8: peptide of SEQ ID NO: 35 (peptide)
peptide: Ac-LEGREKVRAK(Ac)I[Aib][Aib]EGMSTWS[Aib]RK[PEG12]K([γGlu-γGlu-γGlu-Stearoyl])-NH2
SMILES: CCCCCCCCCCCCCCCCCC(=O)N[C@@H](CCC(=O)N[C@@H](CCC(=O)N[C@@H](CCC(=O)NCCCC[C@H](NC(=O)CCOCCOCCOCCOCCOCCOCCOCCOCCOCCOCCOCCOCCNC(=O)[C@H](CCCCN)NC(=O)[C@H](CCCNC(=N)N)NC(=O)C(C)(C)NC(=O)[C@H](CO)NC(=O)[C@H](Cc1c[nH]c2ccccc12)NC(=O)[C@@H](NC(=O)[C@H](CO)NC(=O)[C@H](CCSC)NC(=O)CNC(=O)[C@H](CCC(=O)O)NC(=O)C(C)(C)NC(=O)C(C)(C)NC(=O)[C@@H](NC(=O)[C@H](CCCCNC(C)=O)NC(=O)[C@H](C)NC(=O)[C@H](CCCNC(=N)N)NC(=O)[C@@H](NC(=O)[C@H](CCCCN)NC(=O)[C@H](CCC(=O)O)NC(=O)[C@H](CCCNC(=N)N)NC(=O)CNC(=O)[C@H](CCC(=O)O)NC(=O)[C@H](CC(C)C)NC(C)=O)C(C)C)[C@@H](C)CC)[C@@H](C)O)C(N)=O)C(=O)O)C(=O)O)C(=O)O

Biological target: T1, RXFP1 receptor
Assay: cell-based or functional assay

Row | Binder | EC50 (nM), OVCAR 5 cells (cAMP) | EMax, OVCAR 5 cells (cAMP)
1 | B1 | 2.49 nM | 83%
2 | B2 | 0.02 nM | 90%
3 | B3 | 0.89 nM | 84%
4 | B4 | 0.03 nM | 91%
5 | B5 | 0.09 nM | 87%
6 | B6 | 0.21 nM | 89%
7 | B7 | 31.7 nM | 99%
8 | B8 | 1.69 nM | 95%
